Experimental data published in the DeepSol protein solubility set.

assay: soluble on expression in E. coli; label from the status in PepcDB or PDB records

| Sequence | soluble on expression in E. coli |
| --- | --- |
| MSLMTEMQQRAQLHRQIWKIADEVRGAVDGWDFKQYVLGTLFYRFISENFTDYMQAGDSSIDYAAMPDSIITPEIKDDAVKVKGYFIYPGQLFCNIAAEAHQNEELNTKLKEIFTAIESSASGYPSEQDIKGLFDDFDTTSSRLGSTVADKNKRLAAVLKGVAELDFGNFENHHIDLFGDAYEYLISNYAANAGKSGGEFFTPQSVSKLIARLAVHGQEKVNKIYDPACGSGSLLLQAKKQFDEHIIEEGFFGQEINHTTYNLARMNMFLHNVNYNQFHIELGDTLTNPKLKDSKPFDAIVSNPPYSINWIGSDDPTLINDDRFAPAGVLAPKSKADFAFILHALNYLSGRGRAAIVSFPGIFYRGGAEQKIRQYLVEGNYVETVIALAPNLFYGTGIAVNILVLSKHKDNTDIQFIDASGFFKKETNNNVLIEEHIAEIVKLFADKADVPHIAQNAAQQTVKDNGYNLAVSSYVEAEDTREIIDIKQLNAEIGETVAKIERLRREIDEVIAEIEAEGHHHHHH | soluble |
| MVQQKVEVRLKTGLQARPAALFVQEANRFTSDVFLEKDGKKVNAKSIMGLMSLAVSTGTEVTLIAQGEDEQEALEKLAAYVQEEVLQ | soluble |
| MGSDKIHHHHHHMTSAYCTVLSKGRLYQAVALFKSLEQVDQDSPIFILCMDEDTHRVLQKLKMKQLNLVPVAALENELLLKLKETRDQSEYCWTMKPIFLQAVLNSNPELERVTYIDGDLFFYADPSPIFENQPDCSVLLSRGDIVIPSFEKEQIDMLQRLLGRYNSGFISFKHDDAGTDCLEWWKERCLEECKNAPGEGKFGDQGYLDYMSELFPNVCDITTPGVNIGHWNYGQHTFSWKDGRIVLEDGSPLIFYHFSGYRIVSINEIKQIHETTRTDLPFVHELYQETLPHIIQHMQTLDPEFNGFASKDDNK | not soluble |
| MSESRLLTLRDYIRWAVSRFHAAGLFFGHGTDNAWDEARHLVLGSLHLPWEISDSYLDCRLEDDERAELAEILRRRIEERIPAAYLLGEAWFCGIPFSVDERVLVPRSPIAELIEQRFAPWLPAEPARILDLCTGSGCIGIACAYAFEQAEVVLADLSFDALEVANVNIERHDLGERVYTVQGDGFAGLPGQRFDLIVSNPPYVDAEDFADMPAEFHHEPELGLACGDDGLDLVRRMLAEAADHLSEKGLLIVEVGNSEVHVQALYPEVDFTWLEFEHGGHGVFMLSAAQCREHRELFRSRLEK | not soluble |
| MLKSIELNSHIRNRLAEYLKGRGMDFQTAMQEEKGNKEIAAIVHSGLPTLVRKLYSEQKMQKFFWEKRDLIADYISRRMQG | not soluble |
| MGSDKIHHHHHHMSTPVLNLDPDTLLMSSKDARAAAAPYAAEYQGRGPFNYGGYDNFLNPEILERVREELKQLPEAANSYDRPQERLKTSYVPERLPMYTRQLFYALNSRPMLAFIEELTGIKGLIPDPYFAGGGVHVVANGGHLDIHADFNHHAGLNLERRVNLLIYLNKDWREEYGGSFEVWDENMAGKLASYVPLFNRMCMFSTSSESWHGNPEPVNHPDGEPRMSIALYYYTATWDSTRKSHTTLFKPRPGTKDQRDRQVARRELLQDLLPPVLHRKLAWRLEKLGF | not soluble |
| MGHHHHHHSHMANSAGSMANSAGSMPSSPLRVAVVCSSNQNRSMEAHNILSKRGFSVRSFGTGTHVKLPGPAPDKPNVYDFKTTYDQMYNDLLRKDKELYTQNGILHMLDRNKRIKPRPERFQNCKDLFDLILTCEERVYDQVVEDLNSREQETCQPVHVVNVDIQDNHEEATLGAFLICELCQCIQHTEDMENEIDELLQEFEEKSGRTFLHTVCFY | soluble |
| MSLILRRVFIAIGCVLFSPLSQANSSLGEVNIELRGNVVDFTCAVVAGDSNKSVNLGTWPTKQLHAAGDATQPVAFSLKLEGCPPGSASITFSGTPAPGTALLALADTAMAQKLAIEIRDGDQRRLPLEQASKAVDIDNNGNATLKFYANYIALADGVQPGLANADATFLINYNEGGSHHHHHH | soluble |
